Numbering of substitutions follows the chain as printed. Names and notes keep the numbering of the source.
B1: PYL4H82R V97A (AtPYL H82 and V97A) (receptor)
chain: MLAVHRPSSAVSDGDSVQIPMMIASFQKRFPSLSRDSTAARFHTHEVGPNQCCSAVIQEISAPISTVWSVVRRFDNPQAYKRFLKSCSVIGGDGDNAGSLRQVHVVSGLPAASSTERLDILDDERHVISFSVVGGDHRLSNYRSVTTLHPSPISGTVVVESYVVDVPPGNTKEETCDFVDVIVRCNLQSLAKIAENTAAESKKKMSL
notes: also called PYL4H82R (found combined with V97A)
B2: PYL4A194T: AtPYL4 ABA receptor mutant polypeptide with A194T substitution (SEQ ID NO. 60; nucleic acid SEQ ID NO: 55); also over-expressed in plants (protein, listed as Arabidopsis thaliana)
chain: B1 chain with R82H, A97V, A194T

Key:
PP2CA = assay: Yeast two hybrid (Y2H) growth assay with PP2CA; assay type: cell-based, Arabidopsis; conditions: absence of ABA; growth on medium lacking His and Ade
Experimental: We conducted error-prone PCR mutagenesis by amplification of the PYL4 open reading frame using the following primers: FPYL4Ncol, 5″-GCAGCAGCCATGGTTGCCG TTCACCGTCCTTCT and RPYL4EcoRIstop: […] TCT TCTTCTT, and the following conditions: 2 mM dGTP, dCTP and dTTP, 0.5 mM dATP, 12 mM MgCl2 and Taq polymerase. The PCR product was Ncol-EcoRI doubly digested, cloned into the pGBKT7 vector and DH10B cells were transformed by electroporation. Thus, we generated an allele library in E. coli of approximately 10,000 PYL4 mutant clones. […] The library was shuttled to yeast AH109 by co-transformation with pGAD7-PP2CA. Yeast transformants were pooled and clones able to grow in the absence of exogenous ABA in medium lacking histidine and adenine were selected. Yeast plasmids were extracted, sequenced and retransformed in yeast cells to recapitulate the phenotype. Protocols for yeast two hybrid assays were similar to those described previously (Saez et al., 2008).

6His-ΔNPP2CA = assay: Binding assay with 6His-ΔNPP2CA (Ni-affinity co-purification, size exclusion, pull-down); design: species or system Arabidopsis; conditions: for pull-down interaction with PP2CA: absence or presence of 100 μM ABA
Experimental: For small scale protein purifications, E. coli BL21 (DE3) cells transformed with the corresponding constructs were grown in 100 ml of LB medium to an OD600 of 0.6-0.8. At this point 1 mM isopropyl-β-D-thiogalactoside (IPTG) was added and the cells were harvested after overnight incubation at 20° C. Pellets were resuspended in lysis buffer (50 mM Tris pH 7.5, 250 mM KCl, 10% Glycerol, 1 mM β-mercaptoethanol) and lysed by sonication with a Branson Sonifier 250. The clear lysate obained after centrifugation was purified by Ni-affinity. A washing step was performed using 50 mM Tris, 250 mM KCl, 20% Glycerol, 30 mM imidazole and 1 mM […] washing buffer, and finally the protein was eluted using 50 mM Tris, 250 mM KCl, 20% Glycerol, 250 mM imidazole and 1 mM […] elution buffer For protein-protein interaction experiments, the pET28a_ΔNPP2CA, pETM11_PYL4 wt and pETM11_PYL4A194T plasmids were transformed into E. coli BL21 (DE3). A total of 8 ml of an overnight culture were sub-cultured into 800 ml fresh 2TY broth (16 g Bacto tryptone, 10 g yeast extract, 5 g NaCl per litre of solution) plus kanamycin (50 μg ml-1). Protein expression was induced with 0.3 mM IPTG and the cells were harvested after overnight incubation at 20° C. Pellets were resuspended in 25 mM TrisHCl pH 8.0, 50 mM NaCl, 50 mM imidazole, 5 mM […] and disrupted by sonication. After centrifugation (40 min, 40000 g) at 277 K, the clear supernatant was filtered (pore diameter […]; Millipore Corporation, Bedford, Mass., USA). The 6His-tagged proteins were purified using Ni-NTA Agarose (Qiagen) according to the manufacturer's instructions. The filtered supernatant was mixed with the previously equilibrated beads. After incubation, a washing step with ten volumes of 25 mM TrisHCl pH 8.0, 50 mM NaCl, 20 mM imidazole, 5 mM […] buffer was performed followed by the elution from the Ni2+ resin in a buffer with 500 mM imidazole. Imidazole was removed using a PD-10 column (GE Healthcare) and the His-tag was cleaved using TEV protease.
6His-ΔNPP2CA pellets were resuspended in 25 mM TrisHCl pH 8.0, 150 mM NaCl, 50 mM imidazole, 5 mM 3-mercaptoethanol, 5 mM Mg2+, mixed with 8 mg of either pure non-tagged (through TEV cleavage) PYL4 or PYL4A194T and disrupted by sonication. The crude extracts were treated as described above using His-Trap HP columns from GE Healthcare to the capture step according to the manufacturer's instructions. In all cases, the purified proteins were subjected to a size exclusion chromatography using a Superdex200 10/300 (Amersham Biosciences Limited, UK) to analyze the behavior in a gel filtration of each protein and to isolate the complex. […] After three washes, proteins were eluted by adding 500 mM imidazol and analyzed by SDS-PAGE.

[1] = test system: Arabidopsis thaliana plants; assay: Seedling establishment and early seedling growth of OE lines on ABA; assay type: in vivo; conditions: for ABA-mediated inhibition of seedling establishment: 0.25 or 0.5 μM ABA; for ABA-mediated inhibition of shoot growth (early seedling growth): 0.25-0.5 μM ABA
Source text: PYL4 or PYL4 mutants were cloned into pCR8/GW/TOPO entry vector (Invitrogen) and recombined by LR reaction into the gateway compatible ALLIGATOR2 vector (Bensmihen et al., 2004). This construct drives expression of PYL4 under control of the 35S CaMV promoter and introduces a triple HA epitope at the N-terminus of the protein. Selection of transgenic lines is based on the visualization of GFP in seeds, whose expression is driven by the specific seed promoter At2S3. The ALLIGATOR2-35S:3HA-PYL4 or mutant constructs were transferred to Agrobacterium tumefaciens C58C1 (pGV2260) (Deblaere et al., 1985) by electroporation and used to transform Columbia wild type plants by the floral dip method. T1 transgenic seeds were selected based on GFP visualization and sowed in soil to obtain the T2 generation. At least three independent transgenic lines were generated for each construct. Homozygous T3 progeny was used for further studies and expression of HA-tagged protein in 21-d-old seedlings was verified by immunoblot analysis using anti-HA-peroxidase (Roche).
After surface sterilization of the seeds, stratification was conducted in the dark at 4° C. for 3 d. Approximately 100 seeds of each genotype were sowed on MS plates supplemented with different ABA concentrations per experiment. To score seed germination, radical emergence was analyzed at 72 h after sowing. Seedling establishment was scored as the percentage of seeds that developed green expanded cotyledons and the first pair of true leaves at 7-d.

[2] = test system: Arabidopsis thaliana plants; assay: Drought stress under greenhouse conditions; assay type: in vivo; conditions: for survival after drought stress: OE lines, watering resumed at 19-d, scored at 23-d
Experimental: Plants grown under greenhouse conditions (10 individuals per experiment, three independent experiments) were grown under normal watering conditions for 15 days and then subjected to drought stress by stopping irrigation during 20 days. Next, watering was resumed and survival rate was calculated after 3 days by counting the percentage of plants that had more than four green leaves. Photographs were taken at the start of the experiment (day 0), after 16 and 19 days of drought, and 3 days after rewatering. Shoot-growth and water-loss were measured as follows. Quantification of shoot-growth was performed at 2, 5, 7 and 9 d after stopping irrigation (day 0) by measuring the maximum rosette radius of the plants. Water-loss measurements were done in two leaves from each plant that were detached 11 d after the start of the experiment, next weighted, incubated in de-mineralized water for 3 h and weighed again. The difference in weight was considered as water loss and related to the initial fresh weight (μl H2O/g FW).

Molecule	interaction with PP2CA in Y2H assay (PP2CA)	pull-down interaction with PP2CA (6His-ΔNPP2CA)	ABA-mediated inhibition of seedling establishment [1]	survival after drought stress [2]	ABA-mediated inhibition of shoot growth (early seedling growth) [1]	co-purification with 6His-ΔNPP2CA by Ni-affinity chromatography (6His-ΔNPP2CA; absence of ABA)	complex with 6His-ΔNPP2CA by size exclusion chromatography (6His-ΔNPP2CA; absence of ABA)	plant growth (rosette radius) during drought ([2]; OE plants, subsequent 5-d after irrigation stopped)
PYL4: AtPYL4 wild type ABA receptor polypeptide (SEQ ID NO:3, At2g38310) [reference compound]	ABA-dependent manner	dependent on the addition of ABA	enhanced ABA-mediated inhibition of seedling establishment compared to non-transformed plants	around 30%	–	–	–	–
B1	ABA-independent interaction with PP2CA	–	higher sensitivity to ABA-mediated inhibition of seedling establishment than PYL4 OE plants	–	higher sensitivity to ABA-mediated inhibition of shoot growth than PYL4 OE plants	–	–	–
B2	enhanced the interaction of PYL4 and PP2CA in the absence of ABA	ABA-independent binding	higher sensitivity to ABA-mediated inhibition of seedling establishment than PYL4 OE plants	60-70%	higher sensitivity to ABA-mediated inhibition of shoot growth than PYL4 OE plants	could be co-purified	1:1 complex	plant growth was reduced in non-transformed Col and PYL4 OE plants compared to PYL4A194T OE plants
